According to PMC9234238:

Experiments:
DLL4-Fc = DLL4-Fc (UniProt Q9JI71); test: flow cytometry on cells (cell-based binding assay); details: read off a plot; for percent of parent: HEK293T cells overexpressing N1 with Lfng cDNA, N1+LFNG set to 100%, parent: est. 100; for response: HEK293T cells overexpressing N1 without Lfng cDNA, MFI normalised to N1+LFNG = 100%, parent: est. 79
DLL1-Fc = DLL1-Fc (UniProt Q61483); test: flow cytometry on cells (cell-based binding assay); details: HEK293T cells overexpressing N1 with Lfng cDNA; N1+LFNG set to 100%; parent: est. 100; read off a plot

Row | Substance | percent of parent (DLL4-Fc) | percent of parent (DLL1-Fc) | response (DLL4-Fc)
1 | full-length mouse NOTCH1 (WT N1), coexpressed with LFNG (from UniProt Q01705) N1-16V (Thr of the O-fucose site in EGF16 changed to Val; residue number not printed) | 89 MFI(%) | 90 MFI(%) | –
2 | full-length mouse NOTCH1 (WT N1), expressed without LFNG (from UniProt Q01705) N1-16V (Thr of the O-fucose site in EGF16 changed to Val; residue number not printed) | – | – | 79 MFI(%)
3 | full-length mouse NOTCH1 (WT N1), coexpressed with LFNG (from UniProt Q01705) N1-6V (Thr of the O-fucose site in EGF6 changed to Val; residue number not printed) | 100 MFI(%) | 92 MFI(%) | –
4 | full-length mouse NOTCH1 (WT N1), expressed without LFNG (from UniProt Q01705) N1-26V (Thr of the O-fucose site in EGF26 changed to Val; residue number not printed) | – | – | 85 MFI(%)
5 | full-length mouse NOTCH1 (WT N1), coexpressed with LFNG (from UniProt Q01705) N1-27V (Thr of the O-fucose site in EGF27 changed to Val; residue number not printed) | 92 MFI(%) | 71 MFI(%) | –
6 | full-length mouse NOTCH1 (WT N1), expressed without LFNG (from UniProt Q01705) N1-27V (Thr of the O-fucose site in EGF27 changed to Val; residue number not printed) | – | – | 82 MFI(%)
7 | full-length mouse NOTCH1 (WT N1), expressed without LFNG (from UniProt Q01705) N1-6V (Thr of the O-fucose site in EGF6 changed to Val; residue number not printed) | – | – | 75 MFI(%)
8 | full-length mouse NOTCH1 (WT N1), coexpressed with LFNG (from UniProt Q01705) N1-26V (Thr of the O-fucose site in EGF26 changed to Val; residue number not printed) | 100 MFI(%) | 89 MFI(%) | –
